Experimental data: patent US20110166062A1 (INDIANA UNIVERSITY RESEARCH AND TECHNOLOGY, published 2011)
Bridges are numbered along the chain shown (N, C = ends). Where no end group is shown, it is not given here. [ ]: non-standard residue; d: D form. Aib = CC(C)(N)C(=O)O

Tests used:
Assay in all cases: cell-based or functional assay
[1] = target: glucagon receptor (UniProt P47871 26-477, limits assumed)
[2] = target: GLP-1 receptor (UniProt P43220 24-463, limits assumed)
[3] = target: T1, GIP receptor (UniProt P48546 22-466)
T1 sequence (looked up): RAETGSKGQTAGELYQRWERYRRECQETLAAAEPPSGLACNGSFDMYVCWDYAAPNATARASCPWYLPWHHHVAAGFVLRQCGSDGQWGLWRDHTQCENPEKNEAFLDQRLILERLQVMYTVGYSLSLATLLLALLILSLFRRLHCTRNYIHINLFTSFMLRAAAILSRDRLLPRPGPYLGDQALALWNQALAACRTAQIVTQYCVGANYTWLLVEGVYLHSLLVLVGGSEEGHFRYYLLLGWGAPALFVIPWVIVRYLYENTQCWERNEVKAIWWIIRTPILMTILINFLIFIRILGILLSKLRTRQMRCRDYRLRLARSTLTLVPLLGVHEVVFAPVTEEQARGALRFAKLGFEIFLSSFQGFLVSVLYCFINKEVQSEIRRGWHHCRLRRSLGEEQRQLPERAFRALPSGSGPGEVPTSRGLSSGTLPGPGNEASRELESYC

Sequence of glucagon receptor (P47871 26-477 limits assumed): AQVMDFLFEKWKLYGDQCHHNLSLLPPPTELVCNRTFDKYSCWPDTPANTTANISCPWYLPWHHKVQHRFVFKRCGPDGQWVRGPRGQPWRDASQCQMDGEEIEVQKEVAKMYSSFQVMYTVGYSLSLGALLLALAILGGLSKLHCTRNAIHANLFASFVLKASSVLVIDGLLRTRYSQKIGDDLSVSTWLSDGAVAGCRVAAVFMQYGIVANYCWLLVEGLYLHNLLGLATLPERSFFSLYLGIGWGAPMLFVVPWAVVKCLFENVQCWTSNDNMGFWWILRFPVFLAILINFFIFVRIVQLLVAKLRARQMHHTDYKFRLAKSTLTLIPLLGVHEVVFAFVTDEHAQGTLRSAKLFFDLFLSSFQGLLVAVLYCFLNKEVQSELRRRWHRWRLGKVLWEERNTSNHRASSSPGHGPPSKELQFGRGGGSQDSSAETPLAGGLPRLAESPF

YAEGTFISDYSIAMDKIHQQDFVNWLLAQ-NH2 [mt-106]
EC50 [1]: 165 nM
relative activity [1]: 0.11%
EC50 [2]: 264 nM
relative activity [2]: 0.02%

Y[Aib]EGTFISDYSIAMDKIHQQDFVCWLLAQKGKKNWLKHNITQ-NH2 [mt-102]
EC50 [1]: 799 nM
relative activity [1]: 0.02%
EC50 [2]: 98.4 nM
relative activity [2]: 0.06%

B1: mt-62 (peptide)
peptide: HSQGTFTSDYSIYLDEIHQKEFIAWLMNT-NH2
modifications: lactam 16-20; N-terminus assumed
SMILES: CC[C@H](C)[C@H](NC(=O)[C@H](Cc1ccccc1)NC(=O)[C@H](CCC(=O)O)NC(=O)[C@@H]1CCCCNC(=O)CC[C@H](NC(=O)[C@H](CC(=O)O)NC(=O)[C@H](CC(C)C)NC(=O)[C@H](Cc2ccc(O)cc2)NC(=O)[C@@H](NC(=O)[C@H](CO)NC(=O)[C@H](Cc2ccc(O)cc2)NC(=O)[C@H](CC(=O)O)NC(=O)[C@H](CO)NC(=O)[C@@H](NC(=O)[C@H](Cc2ccccc2)NC(=O)[C@@H](NC(=O)CNC(=O)[C@H](CCC(N)=O)NC(=O)[C@H](CO)NC(=O)[C@@H](N)Cc2c[nH]cn2)[C@@H](C)O)[C@@H](C)O)[C@@H](C)CC)C(=O)N[C@@H]([C@@H](C)CC)C(=O)N[C@@H](Cc2c[nH]cn2)C(=O)N[C@@H](CCC(N)=O)C(=O)N1)C(=O)N[C@@H](C)C(=O)N[C@@H](Cc1c[nH]c2ccccc12)C(=O)N[C@@H](CC(C)C)C(=O)N[C@@H](CCSC)C(=O)N[C@@H](CC(N)=O)C(=O)N[C@H](C(N)=O)[C@@H](C)O
EC50 [1]: 0.45 nM
relative activity [1]: 42.2%
EC50 [2]: 0.1 nM
relative activity [2]: 40%
EC50 [3]: 5.18 nM
relative activity [3]: 1.6%

B2: mt-93 (peptide)
peptide: HSQGTFTSDYSIYLDEKHQKEFIAWLLAQ-NH2
modifications: lactam 16-20, 17-21; N-terminus assumed
SMILES: CC[C@H](C)[C@H](NC(=O)[C@H](Cc1ccccc1)NC(=O)[C@@H]1CCC(=O)NCCCC[C@@H]2NC(=O)[C@@H](NC(=O)[C@H](CC(=O)O)NC(=O)[C@H](CC(C)C)NC(=O)[C@H](Cc3ccc(O)cc3)NC(=O)[C@@H](NC(=O)[C@H](CO)NC(=O)[C@H](Cc3ccc(O)cc3)NC(=O)[C@H](CC(=O)O)NC(=O)[C@H](CO)NC(=O)[C@@H](NC(=O)[C@H](Cc3ccccc3)NC(=O)[C@@H](NC(=O)CNC(=O)[C@H](CCC(N)=O)NC(=O)[C@H](CO)NC(=O)[C@@H](N)Cc3c[nH]cn3)[C@@H](C)O)[C@@H](C)O)[C@@H](C)CC)CCC(=O)NCCCC[C@H](NC(=O)[C@H](CCC(N)=O)NC(=O)[C@H](Cc3c[nH]cn3)NC2=O)C(=O)N1)C(=O)N[C@@H](C)C(=O)N[C@@H](Cc1c[nH]c2ccccc12)C(=O)N[C@@H](CC(C)C)C(=O)N[C@@H](CC(C)C)C(=O)N[C@@H](C)C(=O)N[C@@H](CCC(N)=O)C(N)=O
EC50 [1]: 3 nM
EC50 [2]: 0.04 nM
